Data: EP2182008A2 (ICOS Corporation, dated 2010)

B1: soluble ICAM-R/IgG1 fusion protein (Fc fusion, UniProt P32942 30-485, looked up)
chain: QEFLLRVEPQNPVLSAGGSLFVNCSTDCPSSEKIALETSLSKELVASGMGWAAFNLSNVTGNSRILCSVYCNGSQITGSSNITVYRLPERVELAPLPPWQPVGQNFTLRCQVEDGSPRTSLTVVLLRWEEELSRQPAVEEPAEVTATVLASRDDHGAPFSCRTELDMQPQGLGLFVNTSAPRQLRTFVLPVTPPRLVAPRFLEVETSWPVDCTLDGLFPASEAQVYLALGDQMLNATVMNHGDTLTATATATARADQEGAREIVCNVTLGGERREARENLTVFSFLGPIVNLSEPTAHEGSTVTVSCMAGARVQVTLDGVPAAAPGQPAQLQLNATESDDGRSFFCSATLEVDGEFLHRNSSVQLRVLYGPKIDRATCPQHLKWKDKTRHVLQCQARGNPYPELRCLKEGSSREVPVGIPFFVNVTHNGTYQCQASSSRGKYTLVVVMDIEAGSSH
notes: not shown: IgG1 portion
B2: E-selectin (immobilized) (ligand, UniProt P16581 22-556, looked up)
chain: WSYNTSTEAMTYDEASAYCQQRYTHLVAIQNKEEIEYLNSILSYSPSYYWIGIRKVNNVWVWVGTQKPLTEEAKNWAPGEPNNRQKDEDCVEIYIKREKDVGMWNDERCSKKKLALCYTAACTNTSCSGHGECVETINNYTCKCDPGFSGLKCEQIVNCTALESPEHGSLVCSHPLGNFSYNSSCSISCDRGYLPSSMETMQCMSSGEWSAPIPACNVVECDAVTNPANGFVECFQNPGSFPWNTTCTFDCEEGFELMGAQSLQCTSSGNWDNEKPTCKAVTCRAVRQPQNGSVRCSHSPAGEFTFKSSCNFTCEEGFMLQGPAQVECTTQGQWTQQIPVCEAFQCTALSNPERGYMNCLPSASGSFRYGSSCEFSCEQGFVLKGSKRLQCGPTGEWDNEKPTCEAVRCDAVHQPPKGLVRCAHSPIGEFTYKSSCAFSCEEGFELHGSTQLECTSQGQWTEEVPSCQVVKCSSLAVPGKINMSCSGEPVFGTVCKFACPEGWTLNGSAARTCGATGHWSGLLPTCEAPTESNIP
notes: Control adhesion molecule; also called E-selection
B3: VCAM-1/IgG1 fusion protein (seven extracellular immunoglobulin-like domains) (Fc fusion, UniProt P19320 25-698, looked up)
chain: FKIETTPESRYLAQIGDSVSLTCSTTGCESPFFSWRTQIDSPLNGKVTNEGTTSTLTMNPVSFGNEHSYLCTATCESRKLEKGIQVEIYSFPKDPEIHLSGPLEAGKPITVKCSVADVYPFDRLEIDLLKGDHLMKSQEFLEDADRKSLETKSLEVTFTPVIEDIGKVLVCRAKLHIDEMDSVPTVRQAVKELQVYISPKNTVISVNPSTKLQEGGSVTMTCSSEGLPAPEIFWSKKLDNGNLQHLSGNATLTLIAMRMEDSGIYVCEGVNLIGKNRKEVELIVQEKPFTVEISPGPRIAAQIGDSVMLTCSVMGCESPSFSWRTQIDSPLSGKVRSEGTNSTLTLSPVSFENEHSYLCTVTCGHKKLEKGIQVELYSFPRDPEIEMSGGLVNGSSVTVSCKVPSVYPLDRLEIELLKGETILENIEFLEDTDMKSLENKSLEMTFIPTIEDTGKALVCQAKLHIDDMEFEPKQRQSTQTLYVNVAPRDTTVLVSPSSILEEGSSVNMTCLSQGFPAPKILWSRQLPNGELQPLSENATLTLISTKMEDSGVYLCEGINQAGRSRKEVELIIQVTPKDIKLTAFPSESVKEGDTVIISCTCGNVPETWIILKKKAETGDTVLKSIDGAYTIRKAQLKDAGVYECESKNKVGSQLRSLTLDVQGRENNKDYFSPE
notes: domain: seven extracellular immunoglobulin-like domains; also called VCAM-I/Ig; VCAM-I/IgG; not shown: IgG1 portion
B4: soluble ICAM-1/IgG1 fusion protein (Fc fusion, UniProt P05362 28-480, looked up)
chain: QTSVSPSKVILPRGGSVLVTCSTSCDQPKLLGIETPLPKKELLLPGNNRKVYELSNVQEDSQPMCYSNCPDGQSTAKTFLTVYWTPERVELAPLPSWQPVGKNLTLRCQVEGGAPRANLTVVLLRGEKELKREPAVGEPAEVTTTVLVRRDHHGANFSCRTELDLRPQGLELFENTSAPYQLQTFVLPATPPQLVSPRVLEVDTQGTVVCSLDGLFPVSEAQVHLALGDQRLNPTVTYGNDSFSAKASVSVTAEDEGTQRLTCAVILGNQSQETLQTVTIYSFPAPNVILTKPEVSEGTEVTVKCEAHPRAKVTLNGVPAQPLGPRAQLLLKATPEDNGRSFSCSATLEVAGQLIHKNQTRELRVLYGPRLDERDCPGNWTWPENSQQTPMCQAWGNPLPELKCLKDGTFPLPIGESVTVTRDLEGTYLCRARSTQGEVTRKVTVNVLSPRYE
notes: also called ICAM-I/IgG; not shown: IgG1 portion
B5: CD11a I domain/IgG chimeric protein (Fc fusion, UniProt P20701 153-335, looked up)
chain: GNVDLVFLFDGSMSLQPDEFQKILDFMKDVMKKLSNTSYQFAAVQFSTSYKTEFDFSDYVKRKDPDALLKHVKHMLLLTNTFGAINYVATEVFREELGARPDATKVLIIITDGEATDSGNIDAAKDIIRYIIGIGKHFQTKESQETLHKFASKPASEFVKILDTFEKLKDLFTELQKKIYVIE
notes: domain: I domain; Negative control in the I domain ELISA; also called CD11a/IgG4 protein; not shown: IgG4 portion
B6: VCAM-1 domains 1 and 2 fused to human immunoglobulin Fc (Fc fusion, UniProt P19320 25-220, looked up)
chain: FKIETTPESRYLAQIGDSVSLTCSTTGCESPFFSWRTQIDSPLNGKVTNEGTTSTLTMNPVSFGNEHSYLCTATCESRKLEKGIQVEIYSFPKDPEIHLSGPLEAGKPITVKCSVADVYPFDRLEIDLLKGDHLMKSQEFLEDADRKSLETKSLEVTFTPVIEDIGKVLVCRAKLHIDEMDSVPTVRQAVKELQVY
notes: domain: domains 1 and 2; also called two domain form of VCAM-1; two domain VCAM-1 expression construct; not shown: human immunoglobulin Fc

Key:
[1] = molecular target: T1, human αd/CD18 expressed on transfected cells (human, UniProt P05107 23-769); assay: summary of the adhesion and flow cytometry assays
T1 construct: whole, on cells; Heterodimer on COS, CHO or JY transfectants; also called αd/CD18 transfectants; αd/CD18 CHO transfected cells

[2] = molecular target: T1, human αd/CD18 expressed on transfected …; assay: adhesion of αdβ2-transfected CHO cells to coated wells
[3] = molecular target: T2, LFA-1 leucine zipper fusion protein (UniProt P20701 26-1090; P05107 23-700); assay: ELISA, CAM/Ig on LFA-1LZ captured with TS2/4.1
T2 construct: also called LFA-1LZ; captured CD11a/CD18; not shown: leucine zipper strand

[4] = molecular target: T2, LFA-1 leucine zipper fusion protein; assay: ELISA, CAM/Ig on captured integrin
[5] = molecular target: T1, human αd/CD18 expressed on transfected …; assay: adhesion of transfected CHO cells to immobilized CAM, crystal violet
[6] = molecular target: T3, α4β1 expressed on CHO cells (UniProt P13612 34-1032; P05556 21-798, limits assumed); assay: as above
T3 construct: whole, on cells; also called VLA-4; α4 transformed CHO cells
T3 sequence (P13612 34-1032 limits assumed, chain 1 of 2): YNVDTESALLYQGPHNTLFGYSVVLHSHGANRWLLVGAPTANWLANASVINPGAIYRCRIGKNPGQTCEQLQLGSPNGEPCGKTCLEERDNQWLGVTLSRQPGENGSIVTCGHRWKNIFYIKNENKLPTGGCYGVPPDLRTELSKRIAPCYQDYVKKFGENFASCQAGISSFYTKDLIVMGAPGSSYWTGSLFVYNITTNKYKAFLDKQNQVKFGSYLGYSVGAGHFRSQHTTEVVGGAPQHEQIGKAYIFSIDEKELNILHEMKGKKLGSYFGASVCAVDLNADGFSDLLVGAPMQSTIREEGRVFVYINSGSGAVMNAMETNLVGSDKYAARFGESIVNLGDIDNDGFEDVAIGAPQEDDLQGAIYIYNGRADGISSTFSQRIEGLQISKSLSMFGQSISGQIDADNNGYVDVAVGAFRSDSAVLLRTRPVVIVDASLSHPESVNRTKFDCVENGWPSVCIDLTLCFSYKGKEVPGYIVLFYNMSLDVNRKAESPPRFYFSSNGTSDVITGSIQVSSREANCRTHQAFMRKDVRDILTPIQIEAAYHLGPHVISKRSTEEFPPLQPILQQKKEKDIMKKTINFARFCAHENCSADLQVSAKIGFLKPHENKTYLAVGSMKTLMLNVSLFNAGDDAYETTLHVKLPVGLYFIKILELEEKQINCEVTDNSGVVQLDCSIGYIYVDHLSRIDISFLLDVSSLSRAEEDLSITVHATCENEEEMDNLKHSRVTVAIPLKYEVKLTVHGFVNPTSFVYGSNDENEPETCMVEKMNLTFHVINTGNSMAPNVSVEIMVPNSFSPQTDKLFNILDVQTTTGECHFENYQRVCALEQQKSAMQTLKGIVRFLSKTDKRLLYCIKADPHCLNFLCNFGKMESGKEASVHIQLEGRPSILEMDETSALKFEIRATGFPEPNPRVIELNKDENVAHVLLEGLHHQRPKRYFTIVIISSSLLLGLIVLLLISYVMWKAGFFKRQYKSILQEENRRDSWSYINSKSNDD
T3 sequence (P05556 21-798 limits assumed, chain 2 of 2): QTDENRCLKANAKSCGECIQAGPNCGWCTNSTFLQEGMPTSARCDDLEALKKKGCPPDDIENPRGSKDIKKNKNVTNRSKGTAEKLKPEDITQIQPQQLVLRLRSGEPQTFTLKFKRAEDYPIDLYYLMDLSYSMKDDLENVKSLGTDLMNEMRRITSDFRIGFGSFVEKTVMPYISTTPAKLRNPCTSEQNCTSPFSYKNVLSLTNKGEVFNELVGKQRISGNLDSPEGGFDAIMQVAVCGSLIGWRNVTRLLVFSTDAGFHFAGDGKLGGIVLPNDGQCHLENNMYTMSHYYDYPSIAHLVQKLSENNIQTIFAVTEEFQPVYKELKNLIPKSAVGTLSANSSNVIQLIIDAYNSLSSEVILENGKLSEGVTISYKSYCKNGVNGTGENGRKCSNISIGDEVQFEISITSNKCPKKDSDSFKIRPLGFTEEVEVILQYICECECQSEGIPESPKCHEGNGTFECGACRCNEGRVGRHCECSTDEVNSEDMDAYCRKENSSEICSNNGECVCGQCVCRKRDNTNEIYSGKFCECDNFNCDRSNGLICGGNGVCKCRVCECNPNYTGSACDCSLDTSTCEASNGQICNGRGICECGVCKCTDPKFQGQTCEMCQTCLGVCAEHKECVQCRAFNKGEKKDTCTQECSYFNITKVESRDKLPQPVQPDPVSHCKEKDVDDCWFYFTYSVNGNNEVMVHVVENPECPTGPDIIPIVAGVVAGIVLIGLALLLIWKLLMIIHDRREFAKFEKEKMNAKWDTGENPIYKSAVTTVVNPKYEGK

[7] = molecular target: B4; assay: ELISA, detection with anti-IgG4 HP6023
[8] = molecular target: B1; assay: ELISA, detection with anti-IgG4 HP6023
[9] = molecular target: B3; assay: ELISA, detection with anti-IgG4 HP6023
[10] = molecular target: T1, human αd/CD18 expressed on transfected …; assay: adhesion of transfected CHO cells to immobilized CAM, crystal violet, A570

B1
binding result [1]: binds

B2
binding result [2]: no binding (tested: 100 ng/ml coat)

B3
binding result [3]: no binding

B4
fold above background [4]: ~15 fold
binding result [5]: no binding (tested: 0.5 µg/well)
binding result [6]: no binding (tested: 0.5 µg/well)

B5
binding result [7]: no binding
binding result [8]: no binding
binding result [9]: no binding

B6
binding result [10]: binds
